Reference: patent US8975259B2, “Compositions and methods for inhibiting G protein signaling” (University of Rochester, priority 2007, dated 2015)

How the values were obtained:
Experiment in all cases: Phage ELISA: binding of peptide-displaying phage to wild-type or alanine-substituted b-βγ
Design in all cases: species or system rat
Gβ1γ2 (Gβ1 mutants) [1] = target: T1, Gβ1γ2 (Gβ1 mutants) (UniProt P54311+P63212, L117A); settings: Gβ1 Leu117Ala; mean ± SD
T1 construct: made in house; host or cells: Sf9 insect cells (baculovirus), partially purified via (His)6-Gαi1 on Ni-NTA
Text: (§1) Wild-type Gβ1 and Gp1 mutants were made in the baculovirus vector PDW464 which encodes a biotinylation site at a lysine upstream of the amino terminus of Gβ1 (Goubaeva, et al. (2003) supra). Mutants were generated by overlap extension PCR using standard protocols. The wild-type and mutant Gβ1 constructs consisted of a 20 amino acid biotin acceptor peptide (BAP) sequence fused in-frame with the amino-terminus of rat Gβ1 subunit. When coexpressed with biotin holoenzyme synthetase (BirA) in Sf9 cells, the Gβ1 subunit becomes covalently biotinylated in vivo at the specific lysine acceptor residue in the BAP. Using this approach, 1-2 mg protein of purified protein can be obtained per liter of Sf9 insect cells. As 45 ng of protein is used in the phage ELISA assay, a single purification is sufficient for 10,000 to 30,000 binding assays.
(§2) Phage ELISA assays used to assess peptide binding to wild-type and mutant b-βγ were performed according to standard methods (Smrcka and Scott (2002) Methods Enzymol. 344:557-76). Briefly, 1 μg streptavidin was immobilized in the well of a […] overnight at 4° C. The wells were blocked with 100 μL of 2% bovine serum albumin (BSA) in Tris-buffered saline (TBS) for 1 hour at 4° C. followed by three washes of IX TBS/0.5% TWEEN®. Forty μL of 25 nM bGβ1γ2 in TBS/0.5% TWEEN® was added to each well and incubated at 4° C. for 1.5 hour. The wells were washed, followed by the addition of IxIO^6 to IxIO^10 phage particles and incubated at 4° C. for 3 hours. The wells were then washed six times with TBS/0.5% TWEEN® followed by addition of 40 μL of 1:5000 dilution of anti-M13 antibody (Pharmacia, Uppsala, Sweden) and incubated at room temperature for 1 hour. The wells were washed, followed by the addition of 40 μL of (2,2′-Azino-bis (3-ethylbenzthiazoline)-6-sulfonic acid (ABTS) and the colorimetric reaction was monitored at 405 nm. Nonspecific binding was subtracted for each reading.
(§3) The nine peptides were selected to represent the different consensus groups of peptides previously identified (See Scott et al. (2001) supra; Table 15) and to compare binding characteristics within and between consensus groups. […] As disclosed herein, the binding signal obtained in the ELISA assay was correlated to a loss in affinity by comparing the results to behavior of the peptide in a solution based assay. […] For the purposes of present disclosure, any substitution that decreased the binding to less than 20% of the wild-type binding was considered to be a critical binding contact for that peptide.

Gβ1γ2 (Gβ1 mutants) [2] = target: T2, Gβ1γ2 (Gβ1 mutants) (UniProt P54311+P63212, Y145A); settings: Gβ1 Tyr145Ala; mean ± SD
T2 construct: made in house; host or cells: Sf9 insect cells (baculovirus), partially purified via (His)6-Gαi1 on Ni-NTA
Text: as §1, §2, §3

Gβ1γ2 (Gβ1 mutants) [3] = target: T3, Gβ1γ2 (Gβ1 mutants) (UniProt P54311+P63212, M101A); settings: Gβ1 Met101Ala; mean ± SD
T3 construct: made in house; host or cells: Sf9 insect cells (baculovirus), partially purified via (His)6-Gαi1 on Ni-NTA
Text: as §1, §2, §3

Gβ1γ2 (Gβ1 mutants) [4] = target: T4, Gβ1γ2 (Gβ1 mutants) (UniProt P54311+P63212, Y59A); settings: Gβ1 Tyr59Ala; mean ± SD
T4 construct: made in house; host or cells: Sf9 insect cells (baculovirus), partially purified via (His)6-Gαi1 on Ni-NTA
Text: as §1, §2, §3

Gβ1γ2 (Gβ1 mutants) [5] = target: T5, Gβ1γ2 (Gβ1 mutants) (UniProt P54311+P63212, N230A); settings: Gβ1 Asn230Ala; mean ± SD
T5 construct: made in house; host or cells: Sf9 insect cells (baculovirus), partially purified via (His)6-Gαi1 on Ni-NTA
Text: as §1, §2, §3

Gβ1γ2 (Gβ1 mutants) [6] = target: T6, Gβ1γ2 (Gβ1 mutants) (UniProt P54311+P63212, W332A); settings: Gβ1 Trp332Ala; mean ± SD
T6 construct: made in house; host or cells: Sf9 insect cells (baculovirus), partially purified via (His)6-Gαi1 on Ni-NTA
Text: as §1, §2, §3

Gβ1γ2 (Gβ1 mutants) [7] = target: T7, Gβ1γ2 (Gβ1 mutants) (UniProt P54311+P63212, R314A); settings: Gβ1 Arg314Ala; mean ± SD
T7 construct: made in house; host or cells: Sf9 insect cells (baculovirus), partially purified via (His)6-Gαi1 on Ni-NTA
Text: as §1, §2, §3

Gβ1γ2 (Gβ1 mutants) [8] = target: T8, Gβ1γ2 (Gβ1 mutants) (UniProt P54311+P63212, D246S); settings: Gβ1 Asp246Ser; mean ± SD
T8 construct: made in house; host or cells: Sf9 insect cells (baculovirus), partially purified via (His)6-Gαi1 on Ni-NTA
Text: as §1, §2, §3

Gβ1γ2 (Gβ1 mutants) [9] = target: T9, Gβ1γ2 (Gβ1 mutants) (UniProt P54311+P63212, H311A); settings: Gβ1 His311Ala; mean ± SD
T9 construct: made in house; host or cells: Sf9 insect cells (baculovirus), partially purified via (His)6-Gαi1 on Ni-NTA
Text: as §1, §2, §3

Gβ1γ2 (Gβ1 mutants) [10] = target: T10, Gβ1γ2 (Gβ1 mutants) (UniProt P54311+P63212, K57A); settings: Gβ1 Lys57Ala; mean ± SD
T10 construct: made in house; host or cells: Sf9 insect cells (baculovirus), partially purified via (His)6-Gαi1 on Ni-NTA
Text: as §1, §2, §3

Gβ1γ2 (Gβ1 mutants) [11] = target: T11, Gβ1γ2 (Gβ1 mutants) (UniProt P54311+P63212, M188A); settings: Gβ1 Met188Ala; mean ± SD
T11 construct: made in house; host or cells: Sf9 insect cells (baculovirus), partially purified via (His)6-Gαi1 on Ni-NTA
Text: as §1, §2, §3

Gβ1γ2 (Gβ1 mutants) [12] = target: T12, Gβ1γ2 (Gβ1 mutants) (UniProt P54311+P63212, D186A); settings: Gβ1 Asp186Ala; mean ± SD
T12 construct: made in house; host or cells: Sf9 insect cells (baculovirus), partially purified via (His)6-Gαi1 on Ni-NTA
Text: as §1, §2, §3

Gβ1γ2 (Gβ1 mutants) [13] = target: T13, Gβ1γ2 (Gβ1 mutants) (UniProt P54311+P63212, W99A); settings: Gβ1 Trp99Ala; mean ± SD
T13 construct: made in house; host or cells: Sf9 insect cells (baculovirus), partially purified via (His)6-Gαi1 on Ni-NTA
Text: as §1, §2, §3

| Sequence | % of Wild-Type Signal (Gβ1γ2 (Gβ1 mutants) [1]) [%] | % of Wild-Type Signal (Gβ1γ2 (Gβ1 mutants) [2]) [%] | % of Wild-Type Signal (Gβ1γ2 (Gβ1 mutants) [3]) [%] | % of Wild-Type Signal (Gβ1γ2 (Gβ1 mutants) [4]) [%] | % of Wild-Type Signal (Gβ1γ2 (Gβ1 mutants) [5]) [%] | % of Wild-Type Signal (Gβ1γ2 (Gβ1 mutants) [6]) [%] | % of Wild-Type Signal (Gβ1γ2 (Gβ1 mutants) [7]) [%] | % of Wild-Type Signal (Gβ1γ2 (Gβ1 mutants) [8]) [%] | % of Wild-Type Signal (Gβ1γ2 (Gβ1 mutants) [9]) [%] | % of Wild-Type Signal (Gβ1γ2 (Gβ1 mutants) [10]) [%] | % of Wild-Type Signal (Gβ1γ2 (Gβ1 mutants) [11]) [%] | % of Wild-Type Signal (Gβ1γ2 (Gβ1 mutants) [12]) [%] | % of Wild-Type Signal (Gβ1γ2 (Gβ1 mutants) [13]) [%] |
| --- | --- | --- | --- | --- | --- | --- | --- | --- | --- | --- | --- | --- | --- |
| SCEKRLGVRSCT (phage-displayed) [Compound C5] | 28.5 ± 5.2 | 16.7 ± 4.8 | 47.8 ± 18.9 | 73.8 ± 16.6 | 33.5 ± 7.2 | 3.2 ± 3.7 | 76.5 ± 6.7 | 56.3 ± 4.1 | 58.7 ± 14.4 | 5.6 ± 5.3 | 97.2 ± 14.2 | 45.7 ± 5.2 | 39.0 ± 3.8 |
| SCEKRYGIEFCT [Compound C4] | 18.4 ± 7.1 | 4.4 ± 3.8 | 61.2 ± 30.9 | 7.6 ± 9.6 | 11.5 ± 6.0 | 1.7 ± 3.0 | 1.4 ± 1.0 | 35.8 ± 7.4 | 36.5 ± 8.3 | −0.2 ± 1.9 | 127.5 ± 22.4 | 51.3 ± 15.0 | 67.0 ± 15.2 |
| SCGHGLKVQSTIGACA [Compound 3C] | 10 ± 13.3 | 2.7 ± 10.5 | −4.2 ± 5.5 | 8.5 ± 6.4 | 4.1 ± 4.4 | −0.3 ± 1.7 | 8.3 ± 3.6 | 2.0 ± 2.7 | 30.5 ± 18.9 | 3.6 ± 7.5 | −5.7 ± 5.6 | 35.0 ± 17.2 | −0.5 ± 5.9 |
| SCKRTKAQILLAPCT [Compound C1] | 5.2 ± 3.1 | 88.0 ± 29.9 | 70.5 ± 35.3 | 0.3 ± 0.7 | 19.8 ± 12.3 | −0.3 ± 2.5 | 2.8 ± 1.6 | 2.3 ± 3.0 | 3.0 ± 4.0 | 0.1 ± 1.6 | 4.0 ± 3.4 | 1.4 ± 1.7 | 1.2 ± 2.7 |
| SIGKALFILGYPDYD [Compound 3.14] | 2.1 ± 2.4 | 0.8 ± 0.9 | 26.8 ± 12.5 | 24.7 ± 15.2 | 22.4 ± 4.2 | 7.1 ± 3.7 | 50.2 ± 5.0 | 66.5 ± 7.5 | 93.4 ± 21.5 | 18.6 ± 4.6 | 2.5 ± 3.7 | 14.4 ± 13.4 | 66.0 ± 7.7 |
| WCPPKAMTQLGIKAC [Compound C14] | 3.8 ± 9.2 | 1.9 ± 5.9 | 1.1 ± 4.9 | 3.6 ± 2.0 | 60.0 ± 26.5 | 1.6 ± 2.4 | 3.9 ± 7.9 | 6.3 ± 13.9 | 6.1 ± 3.4 | 3.0 ± 5.0 | 9.9 ± 3.8 | 3.6 ± 1.9 | 10.1 ± 3.3 |
| WCPPKLEQWYDGCA [Compound C2] | 1.5 ± 5.5 | 4.5 ± 8.1 | 157.1 ± 51.5 | −1.7 ± 4.8 | 0.0 ± 3.3 | 4.7 ± 6.2 | 1.3 ± 3.1 | 5.9 ± 5.7 | 11.7 ± 8.0 | −1.2 ± 4.5 | −0.7 ± 2.5 | 267.2 ± 40.6 | −1.0 ± 5.1 |
